Here are results for four molecules from publication doi:10.1101/2021.12.11.472236 (bioRxiv, 2021).

One test concerns the target RBD of Rf1 (Bat SARS CoV Rf1/2004, UniProt Q0QDZ0). The test is described as follows: ELISA. In general terms: An ELISA detects its analyte on a solid surface through an enzyme-linked reagent.
The next test deals with SARS-CoV-2 WA1 RBD (SARS-CoV-2, UniProt P0DTC2). Put plainly: crystal structure.

B1: 10-28 (antibody, V domains shown)
VH: QVQLVESGGGVVQPGRSLRLSCAASGFTFSSYDMHWVRQAPGKGLEWVAVISYDGSSKFYAESVKGRFTISRDNSKNTLYLQMNSLRAEETAVYYCVKDGEQLVPLFDYWGQGTLVTVSS
VL: not shown
For B1, the binding result with RBD of Rf1 is recorded as “binds”.

B2: 10-28 Fab (Fab, V domains shown)
VH: B1 VH
VL: not shown
For B2, the binding result with SARS-CoV-2 WA1 RBD was “binds”.

B3: 10-40 (antibody, V domains shown)
VH: QLQLQESGPGLVKPSETLSLTCTVSGGSISSSNFYWGWIRQPPGKGLEWIASITYSGRTFYNPSLKSRVAISVDTSKNQFSLKLSSVTAADTAVYYCARTFPSYYDRSGYHYLNYGMDVWGQGTTVTVSS
VL: NFMLTQPHSMSESPGKTVTISCTRSSGSIASNYVQWYQQRPGSSPTTVIYEDNQRPSGVPDRFSGSIDSSSNSASLTISGLKTEDEADYYCQSYDSSSWVFGGGTKLTVL
With B3, the binding result with RBD of Rf1 is reported as “binds”.

B4: 10-40 Fab (Fab, V domains shown)
VH: B3 VH
VL: B3 VL
For B4, in the test with SARS-CoV-2 WA1 RBD, the binding result is listed as “binds”.
